To fix the notation:
B1: GpH7-A5/GpH7-B3 variant I336_02A/GpL16-k0 (antibody, human IgG1, kappa)
heavy 1: not shown
heavy 2: not shown
light: DIVMTQSPLSLPVTPGEPASISCQASESLVHSNRNTYLHWYLQKPGQSPQLLIYKVSNRFSGVPDRFSGSGSGTDFTLKISRVEAEDVGVYYCSQNTHVPPTFGQGTKVEIERTVAAPSVFIFPPSDEQLKSGTASVVCLLNNFYPREAKVQWKVDNALQSGNSQESVTEQDSKDSTYSLSSTLTLSKADYEKHKVYACEVTHQGLSSPVTKSFNRGEC
notes: Heterodimerized anti-glypican-3 IgG1 (He Ab); The mutation is in the GpH7-B3 chain only; also called He Ab with I336A in GpH7-B3
B2: GpH7-A5/GpH7-B3 variant I336_03V/GpL16-k0 (antibody, human IgG1, kappa)
heavy 1: not shown
heavy 2: not shown
light: B1 light
notes: Heterodimerized anti-glypican-3 IgG1 (He Ab); The mutation is in the GpH7-B3 chain only; also called He Ab with I336V in GpH7-B3
B3: GpH7-A5/GpH7-B3 variant I336_10E/GpL16-k0 (antibody, human IgG1, kappa)
heavy 1: not shown
heavy 2: not shown
light: B1 light
notes: Heterodimerized anti-glypican-3 IgG1 (He Ab); The mutation is in the GpH7-B3 chain only; also called He Ab with I336E in GpH7-B3
B4: GpH7-A5/GpH7-B3 variant S324_01G/GpL16-k0 (He Ab) (antibody, human IgG1, kappa)
heavy 1: not shown
heavy 2: not shown
light: B1 light
notes: Heterodimerized anti-glypican-3 antibody; the alteration stands only in the GpH7-B3 chain
B5: GpH7-A5/GpH7-B3 variant T335_08L/GpL16-k0 (He Ab) (antibody, human IgG1, kappa)
heavy 1: not shown
heavy 2: not shown
light: B1 light
notes: as for B4
B6: GpH7-A5/GpH7-B3 variant S324_14T/GpL16-k0 (He Ab) (antibody, human IgG1, kappa)
heavy 1: not shown
heavy 2: not shown
light: B1 light
notes: as for B4
B7: GpH7-A5/GpH7-B3 variant S239_10E/GpL16-k0 (He Ab) (antibody, human IgG1, kappa)
heavy 1: not shown
heavy 2: not shown
light: B1 light
notes: as for B4
B8: GpH7-A5/GpH7-B3 variant Y296_20W/GpL16-k0 (He Ab) (antibody, human IgG1, kappa)
heavy 1: not shown
heavy 2: not shown
light: B1 light
notes: as for B4
B9: GpH7-A5/GpH7-B3 variant S337_01G/GpL16-k0 (He Ab) (antibody, human IgG1, kappa)
heavy 1: not shown
heavy 2: not shown
light: B1 light
notes: as for B4
B10: GpH7-A5/GpH7-B3 variant S324_09D/GpL16-k0 (He Ab) (antibody, human IgG1, kappa)
heavy 1: not shown
heavy 2: not shown
light: B1 light
notes: as for B4
B11: GpH7-A5/GpH7-B3 variant Y300_08L/GpL16-k0 (He Ab) (antibody, human IgG1, kappa)
heavy 1: not shown
heavy 2: not shown
light: B1 light
notes: as for B4
B12: GpH7-A5/GpH7-B3 variant T335_09D/GpL16-k0 (He Ab) (antibody, human IgG1, kappa)
heavy 1: not shown
heavy 2: not shown
light: B1 light
notes: as for B4
B13: GpH7-A5/GpH7-B3 variant S324_06M/GpL16-k0 (He Ab) (antibody, human IgG1, kappa)
heavy 1: not shown
heavy 2: not shown
light: B1 light
notes: as for B4
B14: GpH7-A5/GpH7-B3 variant T335_05P/GpL16-k0 (He Ab) (antibody, human IgG1, kappa)
heavy 1: not shown
heavy 2: not shown
light: B1 light
notes: as for B4
B15: GpH7-A5/GpH7-B3 variant S324_20W/GpL16-k0 (He Ab) (antibody, human IgG1, kappa)
heavy 1: not shown
heavy 2: not shown
light: B1 light
notes: as for B4
B16: GpH7-A5/GpH7-B3 variant S239_18N/GpL16-k0 (He Ab) (antibody, human IgG1, kappa)
heavy 1: not shown
heavy 2: not shown
light: B1 light
notes: as for B4
B17: GpH7-A5/GpH7-B3 variant T335_06M/GpL16-k0 (He Ab) (antibody, human IgG1, kappa)
heavy 1: not shown
heavy 2: not shown
light: B1 light
notes: as for B4
B18: GpH7-A5/GpH7-B3 variant S298_03V/GpL16-k0 (He Ab) (antibody, human IgG1, kappa)
heavy 1: not shown
heavy 2: not shown
light: B1 light
notes: as for B4
B19: GpH7-A5/GpH7-B3 variant S337_16H/GpL16-k0 (He Ab) (antibody, human IgG1, kappa)
heavy 1: not shown
heavy 2: not shown
light: B1 light
notes: as for B4

Consider 19 molecules from patent US20150344570A1 (published 2015).

T2 sequence (P08637 17-208): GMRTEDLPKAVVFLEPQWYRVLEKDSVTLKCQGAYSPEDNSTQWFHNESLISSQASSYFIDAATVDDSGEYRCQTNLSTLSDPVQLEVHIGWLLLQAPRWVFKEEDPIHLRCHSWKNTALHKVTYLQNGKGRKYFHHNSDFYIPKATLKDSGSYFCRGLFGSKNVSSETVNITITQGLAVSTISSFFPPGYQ

The first experiment concerns the target T1, FcγRIIb extracellular domain with C-terminal His tag (human, UniProt P31994 43-217).
T1 construct: extracellular domain; Soluble receptor expressed in FreeStyle293 cells and used as analyte in Biacore; also called FcgRIIb; 2b; not shown: His tag at the C terminus
T1 sequence (looked up): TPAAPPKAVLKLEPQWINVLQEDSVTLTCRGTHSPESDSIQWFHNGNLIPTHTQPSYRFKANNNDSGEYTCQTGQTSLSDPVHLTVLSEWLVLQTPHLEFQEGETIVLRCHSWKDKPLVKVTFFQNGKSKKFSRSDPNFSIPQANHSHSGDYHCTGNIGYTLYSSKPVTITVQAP
In words: SPR (Biacore), antibody captured on antigen-peptide chip, FcγR as analyte; relative binding amount. As for the experimental part:
(§1) The heterodimerized antibodies He Abs in which one of the H chains was introduced with an alteration were assayed for their binding activities to each activating FcγR and inhibitory FcγR according to the method described in Example 4. […] The activating FcγRs in FIGS. 26, 27, 28, and 29 are FcγRIa, FcγRIIa (R), FcγRIIa (H), and FcγRIIIa, respectively.
(§2) Analysis of interaction between objective antibody and the FcγR was carried out using Biacore T100 (GE Healthcare). HBS-EP+ (GE Healthcare) was used as the running buffer, and the measurement temperature was set to 25° C. Chips produced by immobilizing the antigen peptide by the amine coupling method to a Series S Sencor Chip CM5 (GE Healthcare), or alternatively, chips produced by allowing preliminarily biotinylated antigen peptides to interact with and immobilize onto a Series S Sensor Chip SA (certified) (GE Healthcare) were used. Antibodies of interest were captured onto an antigen peptide-immobilized chip, and allowed to interact to each FcγR diluted with running buffer. To regenerate and repeatedly use the chip, the antibodies captured on the chip were washed off by reacting 10 mM glycine-HCl, pH 1.5.
(SPR reads the build-up and loss of mass on a sensor chip optically.)
As for B1, the “He/Con_2b (IIb binding)” value is 84.9 relative, GpH7-A5/GpH7-B3/GpL16-k0 = 100.
B2: the “He/Con_2b (IIb binding)” value was 90.3 relative, GpH7-A5/GpH7-B3/GpL16-k0 = 100.
With B3, the “He/Con_2b (IIb binding)” value was 89.8 relative, GpH7-A5/GpH7-B3/GpL16-k0 = 100.

The next experiment has as its target T2, FcγRIIIa extracellular domain with C-terminal His tag (human, UniProt P08637 17-208).
T2 construct: extracellular domain; also called FcgRIIIa; 3a; not shown: His tag at the C terminus
The experiment is described as above. As for the experimental part:
as §1, §2
For B1, the “He/Con_3a (IIIa binding)” value is 111 relative, GpH7-A5/GpH7-B3/GpL16-k0 = 100.
The same measure, in the same setting: for B2 the value was 112 relative, GpH7-A5/GpH7-B3/GpL16-k0 = 100.
Regarding B3, the “He/Con_3a (IIIa binding)” value was 119 relative, GpH7-A5/GpH7-B3/GpL16-k0 = 100.

The target in another experiment is T3, FcγRIIIa (human, UniProt P08637 17-208).
T3 construct: extracellular domain; also called 3a; FcgRIIIa
T3 sequence (P08637 17-208): as the sequence (P08637 17-208) above
In words: SPR (Biacore), antibody captured on antigen-peptide chip, FcγR as analyte; binding of He Ab / binding of HeCon Ab GpH7-A5/GpH7-B3/GpL16-k0 x 100.
As to B4, the He/Con_3a was 105 relative to control = 100.
Turning to B5, the He/Con_3a is 102 relative to control = 100.
For B6, the He/Con_3a is 103 relative to control = 100.
Regarding B7, the He/Con_3a is 181 relative to control = 100.
The same measure, in the same setting: for B8 the value was 135 relative to control = 100; for B9, 102 relative to control = 100; for B10, 101 relative to control = 100.
On to B11, for which the He/Con_3a was 105 relative to control = 100.
Same read-out and setting: for B12 the value was 108 relative to control = 100.
Same read-out and setting: for B13 the value was 113 relative to control = 100; for B14, 105 relative to control = 100.
As to B15, the He/Con_3a is 102 relative to control = 100.
With B16, the He/Con_3a is 110 relative to control = 100.
As to B17, the He/Con_3a was 102 relative to control = 100.
For the molecule B18, the He/Con_3a was 109 relative to control = 100.
Same read-out and setting: for B19 the value was 108 relative to control = 100.

The next experiment addresses T2, FcγRIIIa extracellular domain with …. Nature of the experiment: SPR (Biacore); He/Con for FcγRIIIa divided by He/Con for FcγRIIb. Here is the method:
as §1, §2
As for B1, the “He_3a/2b (IIIa/IIb)” value was 1.31 ratio.
For the molecule B2, the “He_3a/2b (IIIa/IIb)” value was determined as 1.24 ratio.
For the molecule B3, the “He_3a/2b (IIIa/IIb)” value was determined as 1.33 ratio.
